According to paper PMC12529457, “Selection of DNA Aptamers Against Parathyroid Hormone for Electrochemical Impedimetric Biosensor System Development”:

Assays:
Assay in all cases: fluorescent magnetic bead binding assay; peptide on beads, aptamer 100-2500 nM; Bead assay: SELEX conditions (PBS, room temperature), 30 min incubation then wash, pH not stated; EIS: 30 min at ambient temperature, PBS wash, read in 0.1 M KCl with 5 mM ferri/ferrocyanide
Conditions in all cases: protein: commercial; tags: none stated; amine-coupled to carboxy magnetic beads
[1] = target: T1, PTH (1-84) (UniProt P01270 32-115)
T1 sequence: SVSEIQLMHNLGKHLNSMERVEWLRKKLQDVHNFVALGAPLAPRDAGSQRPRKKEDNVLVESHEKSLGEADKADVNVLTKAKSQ

[2] = target: T2, PTH (1-34) (UniProt P01270 32-65)
T2 chain: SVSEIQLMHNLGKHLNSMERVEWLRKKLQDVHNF

[3] = target: T3, PTH (53-84) (UniProt P01270 84-115)
T3 chain: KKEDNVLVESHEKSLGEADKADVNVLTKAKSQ

TATTGGTATGTGCGTCGTCGGTGACCTCTTTCACGGCCGG (ssDNA) [Aptamer-PTH (1-84)]
Kd [1]: 340 ± 23.3 nM

GCGTGGTATGTGCATCGTCAGTGAGGGGTTGGCGGCCGAG (ssDNA) [Aptamer-PTH (1-34)]
Kd [2]: 516 ± 41 nM

GCGTGGTATGTGCGTCGTCGCTAATGAATTTGTAGCCTAC (ssDNA) [Aptamer-PTH (53-84)]
Kd [3]: 220 ± 57.5 nM
